Consider 1 protein from article PMC4363471, “Crystal Structure of Helicobacter pylori Pseudaminic Acid Biosynthesis N-Acetyltransferase PseH: Implications for Substrate Specificity and Catalysis” (PLoS ONE, 2015).

This data set deals with the molecule itself. In words: SEC; Superdex 200 HiLoad 26/60 gel filtration, 50 mM Tris/HCl pH 8.0, 200 mM NaCl; molecular weight from a calibration plot of log MW versus retention volume.

B1: Pseudaminic acid biosynthesis protein H (PseH) from Helicobacter pylori (enzyme, UniProt O25094 1-180, looked up)
chain: MKKNYSYKNIQAIDFTNLNDGEKLLVLEFRNHPNTALWMYSTFISLKTHLQFIEDLKNSPNHRYFLFKEEGVYLGVGSITKINFFHKHGYLGIYKNPFLKNGGETILKALEFIAFEEFQLHSLHLEVMENNFKAIAFYEKNHYELEGRLKGFISKDKEFIDVLLYYKDKKGYNDQSLLKL
notes: PseH, N-acetyltransferase (EC 2.3.1.202) of H. pylori, 21 kDa, residues 1-180; the construct carries an additional GIDPFT fragment (cloning artifact); it is probably N-terminal, left after cleavage of a vector tag (surmised); Crystallised with the cofactor acetyl-CoA; also called flagellin modification protein H; FlmH; source: recombinant, purified as previously described [14]
For the protein B1, the “stoichiometry N” value came out at 2.
